Reference: the supplement of paper PMC9732359
± gives the uncertainty stated by the source.

Assay: protein stability index of a GFP-peptide fusion (yeast GPS) (PSI 1-4); higher = more stable; sorted into four equal gates, so the index is relative within each strain
Summary of the method: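 Tiled 17-residue peptides from yeast proteins were fused downstream of GFP on a plasmid that also expresses Cherry, and the pooled library was carried in yeast. Mid-log cultures grown in leucine-free medium were sorted into four equal gates by GFP/Cherry fluorescence ratio. Plasmids from each gate were PCR-amplified and Illumina-sequenced, and reads were assigned to strains by barcodes. Each peptide's protein stability index is the sum, over gates, of the gate's read frequency multiplied by its gate number.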

Sequence	protein stability index (doa10∆)	protein stability index (pdr5∆)	protein stability index (san1∆)	protein stability index (ubr1∆)
KISNSKLLSLLRSKTSA [SIR4]	2.19 ± 0.058	2.45 ± 0.044	2.3 ± 0.08	2.29 ± 0.055
KIVVVRAEALNISGEFF [RPL16B]	2.51 ± 0.12	2.79 ± 0.12	2.56 ± 0.14	3 ± 0.089
KKEANLFPEQQNKEIKA [RPL6A]	3.38 ± 0.12	3.43 ± 0.088	3.21 ± 0.076	3.3 ± 0.093
KKEEELGVKSRLLEKSE [SNF2]		3.01 ± 0.14	3.06 ± 0.2	3.04 ± 0.29
KKFLRVRIFTKIESEDD [SRB4]	1.46 ± 0.092	1.26 ± 0.089	1.16 ± 0.13	1.11 ± 0.083
KKHLKRLAAPHHWLLDK [RPS4A]	2.78 ± 0.14	2.58 ± 0.078	3.18 ± 0.08	3.01 ± 0.072
KKICNHPFVFEEVEDQI [SNF2]	3.17 ± 0.064	2.89 ± 0.055	2.94 ± 0.06	2.86 ± 0.045
KKIKGKSIQDIVGLATL [SRP21]	3.12 ± 0.039	3.22 ± 0.035	3.177 ± 0.026	3.116 ± 0.031
KKIREIYRYDEMSNKVL [BRR2]	2.92 ± 0.097	3.06 ± 0.13	2.62 ± 0.086	3.08 ± 0.045
KKITLQLLDTSNQRFKD [SIN4]	3.02 ± 0.059	3.18 ± 0.067	2.91 ± 0.048	2.88 ± 0.039
KKKRFEIKKWTAVAFWS [HRT1]	1.97 ± 0.18	1.58 ± 0.12	1.55 ± 0.26	2.27 ± 0.1
KKLDDKPSLVDVHLLES [RPN6]	1.1 ± 0.12	1.29 ± 0.14		
KKLPRKTHRGLRKVACI [RPL3]	1.61 ± 0.062	3.5 ± 0.098	2.65 ± 0.064	3.23 ± 0.058
KKLVWPLHLIFAQPVAD [SSN2]	1.88 ± 0.075	1.39 ± 0.073	1.26 ± 0.11	1.17 ± 0.062
KKMMNTLVHTRVKIANT [SSN2]	2.69 ± 0.066	2.35 ± 0.05	2.67 ± 0.041	2.78 ± 0.033
KKNKRALPNIENDIIKL [BRR2]	3.09 ± 0.054	3.36 ± 0.062	3.23 ± 0.04	3.34 ± 0.037
KKNSSRPMPPIRGPKRR [SMD3]	2.23 ± 0.043	1.86 ± 0.037	2.14 ± 0.055	2.81 ± 0.036
KKNVWRSINNLIQEHDS [BRN1]	3.16 ± 0.1	2.75 ± 0.075	2.63 ± 0.052	2.57 ± 0.041
KKRKIHNGREGSIEEPE [MCD1]	3.26 ± 0.066	3.24 ± 0.06	3.17 ± 0.051	3.27 ± 0.042
KKRLMDIDDELNELETL [SMC2]	3.05 ± 0.058	3.17 ± 0.067	3 ± 0.034	3.37 ± 0.035
KKSVNKLDKQINMADRS [POP6]	2.73 ± 0.062	2.94 ± 0.08	2.63 ± 0.079	2.83 ± 0.054
KKVVIVKPHDEGSKSHP [RPL27A]	2.87 ± 0.081	2.86 ± 0.066	2.82 ± 0.093	3.04 ± 0.057
KLALGIALEGYRLDIIE [RPN2]	2.51 ± 0.15	1.77 ± 0.11		2.19 ± 0.083
KLEPKEIVRDILHTKES [SIR4]	2.92 ± 0.1	3.1 ± 0.14	2.5 ± 0.18	3.04 ± 0.086
KLKQLLDESSEQKNTAK [YIL149C/MLP2]	3.02 ± 0.11	3.22 ± 0.11	2.6 ± 0.17	2.99 ± 0.065
KLLFQELMAMNITPRLY [RPB2]	1.27 ± 0.1	1.39 ± 0.066	1.24 ± 0.13	1.43 ± 0.048
KLLIQIDELSNGQRSNS [SMC1]	2.42 ± 0.16	2.59 ± 0.11	3.14 ± 0.1	3.11 ± 0.16
